# Experimental data: the RNAGym collection of RNA variant scans (doi:10.7554/elife.80360)
# B1: HDV Ribozyme (parent)
# chain: GGCCGGCAUGGUCCCAGCCUCCUCGCUGGCGCCGGCUGGGCAACAUUCCGAGGGGACCGUCCCCUCGGUAAUGGCGAAUGGGACCCA
# Variants of: B1
# Experiment: self-cleavage, relative activity (ratio to wild type); higher = more cleavage; co-transcriptional
row,Variant,self-cleavage
1,G6A G67U,0.692
2,G5C G55C,0.0898
3,G6U G29C,0.119
4,G6U G29A,0.102
5,G5C U9A,0.138
6,G6A G34A,0.0287
7,G5C U60G,0.185
8,G6U C26U,0.892
9,G5U C21U,0.0462
10,G5U C21G,0.0791
11,G6A U46C,0.508
12,G6A G82C,0
13,G5C C41A,0.0665
14,G6C G59U,0.314
15,G6U C18G,0
16,G6U C18A,0.131
17,G5A A87G,0.252
18,G5C G38U,0
19,G6U G25U,0.117
20,G5U A8C,0.0875
21,G5C G50A,0.302
22,G5C A42G,0
23,G5U G28U,0.115
24,G5U G28A,0

row,Variant,self-cleavage
1,G6C U27A,0.332
2,G6C U27G,0.0791
3,G6A G31U,0.219
4,G5A U79C,0.0252
5,G5U G34A,0.0875
6,G5U G29A,0.285
7,G5A G10U,0.188
8,G5C C24A,0.0811
9,G6U G80U,0.0838
10,G5C G81A,0.104
11,G5C C86G,0.113
12,G5C C86U,0.172
13,G6U A56G,0.623
14,G6C A8C,0
15,G6C A8G,0.332
16,G5A U46G,0.161
17,G5A U37A,0
18,G6U G82A,0.0875
19,G5U U69G,0.485
20,G5C C48G,0.0755
21,G5A C63U,0.155
22,G5U C26A,0.697
23,G5U C64U,0.499
24,G5U C64G,0.161

row,Variant,self-cleavage
1,G5U C32A,0.0875
2,G5U C32G,0.196
3,G6C U65A,0.104
4,G5C G59A,0.344
5,G5A G34A,0.0978
6,G5A G34C,0.101
7,G5A C13A,0.0369
8,G6C C85G,0.375
9,G6C C85A,0.0791
10,G6A C7U,0.283
11,G5A G39U,0.101
12,G5A G39A,0.181
13,G6A U12G,0.415
14,G6A U12A,0.253
15,G6A C26A,0.888
16,G5A G81U,0
17,G5C U79G,0
18,G6A G10U,0.0963
19,G5U G6C,0
20,G5U G6U,0
21,G6C C62A,0.161
22,G6U C85A,0.394
23,G6U A77C,0.332
24,G5A C30G,0.0426

row,Variant,self-cleavage
1,G5A C30A,0.109
2,G5C A45C,0.0639
3,G5U C57U,0.604
4,G5U C57G,0.256
5,G6A G11A,0.128
6,G6U C32G,0.798
7,G6C C86G,0.131
8,G5A C36G,0
9,G6A G28A,0.0817
10,G6C A77C,0.277
11,G6U G11A,0.0437
12,G6A U9A,0.942
13,G5C U65A,0.246
14,G6C A71C,0.0791
15,G5A U69G,0.353
16,G5C C66G,0.151
17,G6C G17U,0.237
18,G6A C15G,0.133
19,G5A G55A,0.237
20,G5A G76A,0.229
21,G6A C85G,0.608
22,G6A C85U,0.735
23,G5C G82A,0.123
24,G6A G17C,0.0923

row,Variant,self-cleavage
1,G6A G17A,0.318
2,G6U C63A,0.594
3,G6A U47G,1.01
4,G6A U47C,0.525
5,G5A C33G,0.0615
6,G6U C66A,0.443
7,G6U C66G,0.54
8,G5A C22U,0.0831
9,G5A C22G,0.0554
10,G6U G53A,0.821
11,G6U G53C,0.494
12,G6A U69C,0.631
13,G5C G68U,0.0615
14,G6A U65C,0.554
15,G6C C24A,0.138
16,G5C C33G,1.43
17,G5C C33A,0.26
18,G6C U20A,0
19,G6U C57A,0.623
20,G5C U69C,0.396
21,G6C G74U,0.196
22,G6C G74C,0
23,G5C C14A,0.0692
24,G5C C14U,0.506

row,Variant,self-cleavage
1,G5U U20A,0
2,G5U C62G,0.346
3,G5A G50U,0.143
4,G5C C44G,0
5,G5U U65C,0.723
6,G6C C49G,0.166
7,G5A U47G,0.0875
8,G6A G29C,0.0326
9,G6C A42C,0.138
10,G6C A42U,0.158
11,G5U A78C,0.185
12,G5U A78U,0.0723
13,G5U C84A,0.302
14,G5U C24G,0
15,G5U C24U,0.115
16,G6U A83U,0.256
17,G6U A83G,0.17
18,G6C G54A,0.415
19,G5C C26G,0.138
20,G6C G53C,0.32
21,G5U U23C,0.462
22,G6A G76U,0.881
23,G5C G53C,0.237
24,G5U C22A,0.0415

row,Variant,self-cleavage
1,G5U G39C,0.26
2,G5C G29A,0.147
3,G5C C75A,0.0536
4,G6A A8U,0.475
5,G5C G74A,0.0898
6,G6U C86A,0.574
7,G5C G17A,0.0852
8,G5C G17U,0
9,G6C C15G,0
10,G6C C14G,0.111
11,G6A C61G,0.712
12,G5C G73U,0.0504
13,G6U G31A,0.282
14,G6U G31C,0.122
15,G6A G35C,0.119
16,G5U C44U,0.369
17,G5A C86G,0.13
18,G6C C7A,0.772
19,G6C C21G,0.0875
20,G5A C85U,0.142
21,G6C A45C,0.185
22,G6A A45G,0.425
23,G6A A45C,0.0519
